This note sets out measurements from the RNAGym collection of RNA variant scans (doi:10.1073/pnas.2313332121).

First the molecules themselves.
B1: TPR 5TU (parent)
chain: GGAUCUUCUCGAUCUAACAAAAAAGACAAAUCUGCCACAAAGCUUGAGAGCAUCUUCGGAUGCAGAGGCGGCAGCCUUCGGUGGCGCGAUAGCGCCAACGUUCUCAACUAUGACACGCAAAACGCGUGCUCCGUUGAAUGGAGUUUAUCAUG

Fewer inactive variants are shown than the library holds.

This series covers variants of B1. The series is described as follows: polymerase ribozyme fitness, log enrichment relative to wild type (log ratio); higher = more active; in vitro selection for triplet polymerase activity. In short, it runs like this: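 Libraries of mutants in each subunit of a heterodimeric triplet polymerase ribozyme were generated by PCR and transcribed. In triplicate, each went through one in vitro selection round: annealing with biotinylated primer, partner subunit and triplets; frozen incubation at −7 °C; gel excision of extended constructs; streptavidin-bead capture; RT-PCR. Fitness, taken from Illumina sequencing of input and output libraries, is the logarithm of a genotype's enrichment over wild-type enrichment, averaged across replicates with inverse-variance weights. The logarithm is base 2, and genotypes needed ≥10 input reads and ≥1 read per output to be kept.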
As for C51U U53A C96G G124U A147U, the “polymerase ribozyme fitness (log ratio)” value was -3.84. Regarding C87G C105U A137C A150U, the “polymerase ribozyme fitness (log ratio)” value was not above -4.2. For A40U U56A G80C G84U C99A G143U the value was not above -4.2. C54G C76G A89U C93A A113G C116U: the “polymerase ribozyme fitness (log ratio)” value is not above -4.2. U13G A19U A49U C54G A89G C93U U127C: the “polymerase ribozyme fitness (log ratio)” value is not above -4.2.

For A98U A138G, the “polymerase ribozyme fitness (log ratio)” value was -3.32. With U9C A16U A19U U31A C35U A49U the figure was not above -4.2; with C79A C93A C95U, not above -4.2; with A3U A24G C32G, -4.15. With C72A G140U the figure was not above -4.2. With A52C C116G the figure was -1.21. For the variant U101G G136C, the “polymerase ribozyme fitness (log ratio)” value was -2.44.

Turning to G67A U78G G86U C99U G141A, the “polymerase ribozyme fitness (log ratio)” value was not above -4.2.

Take C43U U55G A60U U109A U145C U146C: the “polymerase ribozyme fitness (log ratio)” value was not above -4.2.

Turning to U4G A16C A28U C38U U55A C75G U111C A122U A142C, the “polymerase ribozyme fitness (log ratio)” value is not above -4.2.

As for U55G G58C G59U G67C U78A C95U A113G, the “polymerase ribozyme fitness (log ratio)” value was not above -4.2. For G81C G126C U145C the value was 0.873; for C72U G83A C93U U111C A120U G143U, not above -4.2.

On to C32G C51U U53A G94A U101A A122G, for which the “polymerase ribozyme fitness (log ratio)” value was not above -4.2. For G67U C76G G143A A150G the value was not above -4.2; for C75U G84U U101C, -1.45. For C93A G100C C118G A138G the value was not above -4.2; for A21C C35A G84A G117A U127G, not above -4.2. For A41C G83U G124U the value was -0.893; for G62U A73U, -3.59; for U31C A60C G92A C99A, not above -4.2. As for A107G C132U G133U, the “polymerase ribozyme fitness (log ratio)” value is -3.52. For C36U G128C G140U the value was not above -4.2; for G58A G94A, -0.945.

For U9A A16U A19U C27G U77C G84A G100C G133U G141A U145A, the “polymerase ribozyme fitness (log ratio)” value was not above -4.2. With G80A C85U G136A G143C the figure was -1.57.

Take C5G A29C A47C G50A G86A U90A A91U G143C: the “polymerase ribozyme fitness (log ratio)” value is not above -4.2. For C87A U151G the value was not above -4.2. For A3U G81C the value was -0.0386; for C35U A47C U56G A64U A106U G133U, not above -4.2; for A20U C32G A40G U55G, -4.19. With U15G C27U G83A A121C the figure was -2.52; with U6G A28U C72U C87A, not above -4.2; with A41C G58A G68A U104C A113C A147C, not above -4.2. In the case of A41U C87A A120C U139C A142U, the “polymerase ribozyme fitness (log ratio)” value is not above -4.2. With C96U G143C the figure was -3.12; with A91U A115U C118A C131G A138G, not above -4.2; with A89U A91U C93U C95A, not above -4.2. For U15A C38A A41C C75U U135C the value was -3.63; for C5G A17G A26C A40U U82G C87U C118G C129A C131A G141C, not above -4.2. Take G86U C96A: the “polymerase ribozyme fitness (log ratio)” value was -2.89. Turning to A39G G86C U109C G128U G140C, the “polymerase ribozyme fitness (log ratio)” value was not above -4.2. With A39U G58C G88A the figure was not above -4.2; with A26C U53A U56A C114U, -3.79; with A22U G48C C51U C116G G124A A150G, not above -4.2.

For the variant A89G G126U U148G, the “polymerase ribozyme fitness (log ratio)” value was -4.06.

Take G92C: the “polymerase ribozyme fitness (log ratio)” value was -0.459. With G46U C51G C54U the figure was not above -4.2; with C57A U102C C103U, -2.76.

Consider G83C G126A, for which the “polymerase ribozyme fitness (log ratio)” value was 0.0538. Regarding U45A C85U, the “polymerase ribozyme fitness (log ratio)” value was -3.1. Turning to A30U A47C G50A C54G G92C C123G, the “polymerase ribozyme fitness (log ratio)” value is not above -4.2.

For A19G G59U G84U C105G, the “polymerase ribozyme fitness (log ratio)” value is -3.78. With U9A U13G G42U U61A A91U A106G A142C the figure was not above -4.2; with C27A G74A C76G G86C G128A C129U U144C, not above -4.2; with C18U U31G A41G U56A C63U C95U C96G U144C, -2.53.

Turning to A29G G50A G80U A91C U134A U146C, the “polymerase ribozyme fitness (log ratio)” value is not above -4.2. Turning to C54U C87G, the “polymerase ribozyme fitness (log ratio)” value was not above -4.2.

With A30U C43G, the “polymerase ribozyme fitness (log ratio)” value is not above -4.2. For A89U U127C G136C A137C the value was -4.13; for C85G G94U, -0.835. For A110G, the “polymerase ribozyme fitness (log ratio)” value is -2.42. For A110U the value was -3.57.

As to U6G U31G G84U, the “polymerase ribozyme fitness (log ratio)” value is -0.345. With U9C C57G G140C the figure was not above -4.2. Take C27G C76A C93G: the “polymerase ribozyme fitness (log ratio)” value is not above -4.2. For A19U G58A C105G the value was -2.43; for G11C G46C C57U C85U, -3.93.

A49C U55A A66U C72A C85U: the “polymerase ribozyme fitness (log ratio)” value was not above -4.2. With C75G G86C C87U the figure was not above -4.2; with C87U G140U, -3.68; with G59U C99U C132U, -1.59. With A91G A113C U127C U146G the figure was not above -4.2.

On to A30U U44A C85A A110C U111C, for which the “polymerase ribozyme fitness (log ratio)” value was not above -4.2. With A47C G48A G124U the figure was -3.59. For A22U A41G C93U A107U C108U C129U G133U A142C the value was not above -4.2; for A39C U145C, -1.66; for U44A A49G, not above -4.2.
